Experimental data published in patent US20250263489A1 (TEIJIN PHARMA, published 2025).
Where a chain is given by its changes, count along the chain named.

B1: human chimeric IGF11-16 antibody (antibody, V domains shown)
VH: QIQLQQPGAELVKPGASVKLSCKAPGYTFTSYWMHWVKQRPGQGLEWIGETNPSNSVTNYNEKFKSKATLTVDKSSSTAYMQLSSLTSEDSAVYYCTIGRGRGFAYWGQGTLVTVSA
VL: DIQMNQSPSSLSASLGDTITITCRASQNINFWLSWCQQKPGNIPKLLIYKASNLHTGVPSRFSGSGSGTDFTLTISSLQPEDIATYYCLQGQSYPYTFGGGTKLEIK
notes: also called Chimera; human mouse chimeric antibody IGF11-16
B2: humanized antibody hIGF13_PS (antibody, V domains shown)
VH: QVQLVQSGAEVKKPGASVKVSCKAPGYTFTSYWMHWVRQAPGQGLEWMGETNPSSSVTNYAQKFQGRVTLTVDTSTSTAYMELSSLRSEDTATYYCTIGRGRGFAYWGQGTLVTVSS
VL: B1 VL with N5T, L15V, T18R, I19V, C36Y, N42K, I43V, I83V
notes: also called VL23/VH13_PS
B3: humanized antibody hIGF25_PS (antibody, V domains shown)
VH: B2 VH with T93V
VL: B1 VL with N5T, L15V, T18R, I19V, C36Y, N42K, I43V, I83V
notes: also called VL23/VH25_PS

Legend:
[1] = molecular target: IGF-1 receptor on the cells of the PathHunter IGF1R Functional Assay (DiscoverX) (UniProt P08069 31-1367); assay: cell-based or functional assay
[2] = molecular target: T1, rabbit IGF-1 receptor expressed on HEK293T cells (rabbit); assay: cell-based ELISA on fixed HEK293T cells expressing the IGF-1R, antibody at 5 nM, anti-human IgG HRP, absorbance 450 nm minus 650 nm
Protocol: (§1) HEK293T cells were transfected by lipofection method with pEF1 expression vectors (Thermo Fisher) incorporated with the IGF-1 receptor genes of rabbit (SEQ ID NO: 76), guinea pig (SEQ ID NO: 78), rat (SEQ ID NO: 80) and mouse SEQ ID NO: 82). The transfected HEK293T cells were allowed to grow overnight or longer after the lipofection, and were then added to a 96-well plate (poly-D-lysine coated) at 4×10⁴ cells/well. The cells were then fixed in 10% buffered formalin (Mildform® 10NM, Wako) and blocked with phosphate buffer containing 3% BSA before used for ELISA.
(§2) ELISA was carried out as follows. 100 μL of each humanized antibody solution prepared at 5 nM in 1% BSA/1% FBS/PBS was added to each well, and reacted at 37° C. for about 1 hour. Anti-human IgG antibody HRP conjugate solution prepared at each concentration in 1% BSA/1% FBS/PBS was added to each well at 100 μL, reacted at 37° C. for about 1 hour, and washed three times with washing solution. […] After about 30 minutes, 100 μL of 1M sulfuric acid was added to each well, the absorbances at 450 and 650 nm were measured, and the difference between the absorbances at 450 nm and at 650 nm was calculated. The calculated difference was compared with the difference between the absorbances at 450 nm and at 650 nm for HEK293T cells without IGF-1 receptor gene (Mock) to analyze the binding activity.

[3] = molecular target: T2, guinea pig IGF-1 receptor expressed on HEK293T cells (guinea pig, UniProt P08069 31-1367 (human entry)); assay: as above
Protocol: as §1, §2

[4] = molecular target: T3, human IGF-1 receptor expressed on HEK293T cells (human, UniProt P08069 31-1367); assay: cell-based ELISA on fixed HEK293T cells expressing the receptor, antibody at 5 nM
T3 construct: Cells fixed in formalin before the ELISA; also called human IGF-1 receptor-expressing cells

[5] = molecular target: crab-eating macaque IGF-1 receptor expressed on HEK293T cells (crab-eating macaque); assay: as above
[6] = molecular target: T1, rabbit IGF-1 receptor expressed on …; assay: as above
[7] = molecular target: T2, guinea pig IGF-1 receptor expressed on …; assay: as above
[8] = molecular target: rat IGF-1 receptor expressed on HEK293T cells (rat, UniProt P24062 31-1370); assay: cell-based ELISA on fixed HEK293T cells expressing the receptor, compared with Mock cells
Protocol: as §1
(§3) ELISA was carried out as follows. 100 μL of each humanized antibody solution prepared at 5 nM in 1% BSA/1% FBS/PBS was added to each well, and reacted at 37° C. for about 1 hour. Anti-human IgG antibody HRP conjugate solution prepared at each concentration in 1% BSA/1% FBS/PBS was added to each well at 100 μL, reacted at 37° C. for about 1 hour, and washed three times with washing solution. The reaction was initiated by adding 100 μL of substrate (TMB) to each well. After about 30 minutes, 100 μL of 1M sulfuric acid was added to each well, the absorbances at 450 and 650 nm were measured, and the difference between the absorbances at 450 nm and at 650 nm was calculated. The calculated difference was compared with the difference between the absorbances at 450 nm and at 650 nm for HEK293T cells without IGF-1 receptor gene (Mock) to analyze the binding activity.

[9] = molecular target: mouse IGF-1 receptor expressed on HEK293T cells (mouse, UniProt Q60751 31-1373); assay: as above
Protocol: as §1, §3

T1 sequence (chain, as listed by the source limits assumed): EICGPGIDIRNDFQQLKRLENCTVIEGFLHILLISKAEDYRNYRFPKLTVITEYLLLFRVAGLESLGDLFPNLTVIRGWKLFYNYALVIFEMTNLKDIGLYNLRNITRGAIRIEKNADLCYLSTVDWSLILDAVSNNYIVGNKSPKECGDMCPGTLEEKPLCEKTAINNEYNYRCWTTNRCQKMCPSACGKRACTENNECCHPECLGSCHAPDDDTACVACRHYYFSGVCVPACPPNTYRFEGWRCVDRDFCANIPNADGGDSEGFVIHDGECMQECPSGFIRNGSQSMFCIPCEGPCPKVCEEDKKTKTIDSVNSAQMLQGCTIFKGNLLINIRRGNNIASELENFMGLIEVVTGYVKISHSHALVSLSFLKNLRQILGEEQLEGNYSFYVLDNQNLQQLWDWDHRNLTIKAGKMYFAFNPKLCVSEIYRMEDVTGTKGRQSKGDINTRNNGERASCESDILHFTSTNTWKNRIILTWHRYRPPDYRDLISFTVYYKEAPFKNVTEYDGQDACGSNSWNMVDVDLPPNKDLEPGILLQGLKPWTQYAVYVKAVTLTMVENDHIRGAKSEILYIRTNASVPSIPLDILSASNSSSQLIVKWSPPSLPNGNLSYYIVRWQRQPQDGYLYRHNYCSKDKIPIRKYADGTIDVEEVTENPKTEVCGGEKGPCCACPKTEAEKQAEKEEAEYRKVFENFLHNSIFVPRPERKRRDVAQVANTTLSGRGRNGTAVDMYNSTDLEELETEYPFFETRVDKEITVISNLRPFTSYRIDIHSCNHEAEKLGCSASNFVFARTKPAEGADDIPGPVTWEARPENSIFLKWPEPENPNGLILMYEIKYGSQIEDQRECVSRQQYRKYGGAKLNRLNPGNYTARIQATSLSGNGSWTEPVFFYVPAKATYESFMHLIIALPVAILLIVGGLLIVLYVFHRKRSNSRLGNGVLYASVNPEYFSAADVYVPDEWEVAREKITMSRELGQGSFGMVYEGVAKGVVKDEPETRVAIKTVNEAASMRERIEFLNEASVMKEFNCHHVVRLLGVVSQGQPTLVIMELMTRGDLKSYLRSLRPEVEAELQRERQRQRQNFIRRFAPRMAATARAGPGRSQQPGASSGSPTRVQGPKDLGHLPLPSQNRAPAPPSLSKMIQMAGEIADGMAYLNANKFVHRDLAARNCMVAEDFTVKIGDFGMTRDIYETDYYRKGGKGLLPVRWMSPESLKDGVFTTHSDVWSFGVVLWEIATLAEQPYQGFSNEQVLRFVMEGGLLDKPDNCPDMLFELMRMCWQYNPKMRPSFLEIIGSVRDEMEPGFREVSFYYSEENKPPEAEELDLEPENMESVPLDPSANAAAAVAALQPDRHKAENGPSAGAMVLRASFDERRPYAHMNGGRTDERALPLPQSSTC
T2 sequence (P08069 other isoform, or with tags, fused parts or gaps limits assumed): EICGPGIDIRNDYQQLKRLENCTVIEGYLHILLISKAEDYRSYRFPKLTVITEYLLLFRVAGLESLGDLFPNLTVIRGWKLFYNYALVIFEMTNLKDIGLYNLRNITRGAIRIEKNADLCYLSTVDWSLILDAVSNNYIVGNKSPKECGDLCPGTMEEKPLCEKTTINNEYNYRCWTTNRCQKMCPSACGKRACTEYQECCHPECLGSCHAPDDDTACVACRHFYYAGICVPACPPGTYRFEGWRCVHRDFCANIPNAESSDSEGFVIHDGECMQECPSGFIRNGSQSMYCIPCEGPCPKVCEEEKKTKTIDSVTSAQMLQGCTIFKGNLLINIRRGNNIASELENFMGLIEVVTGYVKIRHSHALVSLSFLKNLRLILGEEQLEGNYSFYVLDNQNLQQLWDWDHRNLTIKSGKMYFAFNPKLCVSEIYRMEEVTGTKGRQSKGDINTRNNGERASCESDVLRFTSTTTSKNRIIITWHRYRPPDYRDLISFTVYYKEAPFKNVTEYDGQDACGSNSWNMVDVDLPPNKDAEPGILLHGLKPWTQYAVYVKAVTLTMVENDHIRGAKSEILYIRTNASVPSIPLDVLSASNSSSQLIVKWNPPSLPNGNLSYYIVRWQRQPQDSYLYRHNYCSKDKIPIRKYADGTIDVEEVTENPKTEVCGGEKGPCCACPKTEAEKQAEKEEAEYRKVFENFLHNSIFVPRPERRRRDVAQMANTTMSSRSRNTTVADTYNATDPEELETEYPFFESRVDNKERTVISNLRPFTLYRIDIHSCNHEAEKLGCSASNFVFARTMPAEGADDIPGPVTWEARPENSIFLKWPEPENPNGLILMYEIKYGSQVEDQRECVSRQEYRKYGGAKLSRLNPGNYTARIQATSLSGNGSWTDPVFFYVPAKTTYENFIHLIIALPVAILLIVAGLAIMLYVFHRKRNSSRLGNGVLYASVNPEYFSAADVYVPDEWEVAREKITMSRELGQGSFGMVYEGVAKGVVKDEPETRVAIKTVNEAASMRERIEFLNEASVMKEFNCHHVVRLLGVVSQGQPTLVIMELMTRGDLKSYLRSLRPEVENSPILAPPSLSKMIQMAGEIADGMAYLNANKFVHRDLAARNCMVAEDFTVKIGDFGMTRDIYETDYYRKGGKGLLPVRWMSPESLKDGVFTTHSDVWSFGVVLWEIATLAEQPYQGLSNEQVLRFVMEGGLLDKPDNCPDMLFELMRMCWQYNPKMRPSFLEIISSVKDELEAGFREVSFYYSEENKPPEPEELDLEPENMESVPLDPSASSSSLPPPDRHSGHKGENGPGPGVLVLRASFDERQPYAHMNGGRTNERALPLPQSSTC
Chain of mouse IGF-1 receptor expressed on HEK293T cells (Q60751 31-1373 limits assumed): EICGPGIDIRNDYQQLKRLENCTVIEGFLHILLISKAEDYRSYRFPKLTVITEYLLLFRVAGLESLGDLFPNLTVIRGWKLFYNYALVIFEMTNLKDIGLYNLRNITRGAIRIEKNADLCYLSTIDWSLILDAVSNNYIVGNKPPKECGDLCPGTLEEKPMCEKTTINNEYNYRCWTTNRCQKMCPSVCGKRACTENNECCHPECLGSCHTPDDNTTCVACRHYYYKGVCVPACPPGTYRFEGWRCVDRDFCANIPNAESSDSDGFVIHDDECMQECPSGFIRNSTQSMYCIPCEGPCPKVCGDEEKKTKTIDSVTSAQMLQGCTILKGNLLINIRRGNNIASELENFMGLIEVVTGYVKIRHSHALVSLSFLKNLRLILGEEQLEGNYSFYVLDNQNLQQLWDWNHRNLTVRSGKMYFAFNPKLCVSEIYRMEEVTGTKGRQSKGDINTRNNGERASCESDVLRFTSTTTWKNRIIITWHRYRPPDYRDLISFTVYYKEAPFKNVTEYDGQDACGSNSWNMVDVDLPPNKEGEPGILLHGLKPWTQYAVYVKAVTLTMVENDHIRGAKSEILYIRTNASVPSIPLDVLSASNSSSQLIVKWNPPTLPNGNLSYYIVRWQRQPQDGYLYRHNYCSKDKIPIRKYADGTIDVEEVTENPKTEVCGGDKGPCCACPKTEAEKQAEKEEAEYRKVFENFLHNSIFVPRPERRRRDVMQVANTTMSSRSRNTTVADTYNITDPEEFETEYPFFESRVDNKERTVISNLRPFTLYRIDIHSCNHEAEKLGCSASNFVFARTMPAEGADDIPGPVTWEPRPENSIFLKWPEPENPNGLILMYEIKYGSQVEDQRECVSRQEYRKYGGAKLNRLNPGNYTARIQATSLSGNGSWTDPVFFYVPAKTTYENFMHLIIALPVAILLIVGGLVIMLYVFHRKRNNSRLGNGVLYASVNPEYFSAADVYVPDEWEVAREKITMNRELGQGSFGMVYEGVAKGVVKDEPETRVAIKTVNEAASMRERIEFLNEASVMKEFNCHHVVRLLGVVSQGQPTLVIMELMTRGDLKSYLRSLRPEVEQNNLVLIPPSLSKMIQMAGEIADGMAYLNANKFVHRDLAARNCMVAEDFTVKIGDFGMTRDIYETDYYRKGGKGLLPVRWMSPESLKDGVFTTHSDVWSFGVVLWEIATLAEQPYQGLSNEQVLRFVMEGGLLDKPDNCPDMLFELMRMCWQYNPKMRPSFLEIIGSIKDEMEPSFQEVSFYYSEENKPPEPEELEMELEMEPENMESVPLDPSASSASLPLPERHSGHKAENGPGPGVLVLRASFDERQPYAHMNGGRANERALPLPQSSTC

Binder	Signal intensity (ratio to IGF11-16) at 16.7 nM, PathHunter [1]	binding result [2]	binding result [3]	binding activity, fold compared to Mock cells [4] [fold]	binding activity, fold compared to Mock cells [5] [fold]	binding activity, fold compared to Mock cells [6] [fold]	binding activity, fold compared to Mock cells [7] [fold]	binding result [8]	binding result [9]
B1	1 ratio to human chimeric IGF11-16	binds	binds						
B2				~2	~2	~2	~2	no binding (tested: 5 nM)	no binding (tested: 5 nM)
B3				~2	~2	~2	~2	no binding (tested: 5 nM)	no binding (tested: 5 nM)
